Experimental data published in patent US20180118808A1 (CALIFORNIA INSTITUTE FOR BIOMEDICAL RESEARCH, published 2018).

T1: E4 Chimeric Receptor
T1 chain: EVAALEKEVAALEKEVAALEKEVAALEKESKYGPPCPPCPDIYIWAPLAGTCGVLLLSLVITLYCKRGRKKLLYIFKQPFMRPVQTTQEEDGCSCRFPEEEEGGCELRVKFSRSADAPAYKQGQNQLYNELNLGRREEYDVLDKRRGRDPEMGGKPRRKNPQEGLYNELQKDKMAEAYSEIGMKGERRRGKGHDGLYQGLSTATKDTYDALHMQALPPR

T2: K4 Chimeric Receptor
T2 chain: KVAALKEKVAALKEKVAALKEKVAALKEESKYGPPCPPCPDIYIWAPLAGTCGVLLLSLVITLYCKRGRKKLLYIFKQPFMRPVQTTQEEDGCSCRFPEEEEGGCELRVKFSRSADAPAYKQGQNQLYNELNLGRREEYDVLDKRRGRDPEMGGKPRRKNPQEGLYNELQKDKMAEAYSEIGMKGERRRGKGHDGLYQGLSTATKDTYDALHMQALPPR

B1: Fmc63 HCCT K4 switch (Fab, V domains shown)
VH: EVKLQESGPGLVAPSQSLSVTCTVSGVSLPDYGVSWIRQPPRKGLEWLGVIWGSETTYYNSALKSRLTIIKDNSKSQVFLKMNSLQTDDTAIYYCAKHYYYGGSYAMDYWGQGTSVTVSS
VL: DIQMTQTTSSLSASLGDRVTISCRASQDISKYLNWYQQKPDGTVKLLIYHTSRLHSGVPSRFSGSGSGTDYSLTISNLEQEDIATYFCQQGNTLPYTFGGGTKLEIKR
B2: Fmc63 HCCT E4 switch (Fab, V domains shown)
VH: EVKLQESGPGLVAPSQSLSVTCTVSGVSLPDYGVSWIRQPPRKGLEWLGVIWGSETTYYNSALKSRLTIIKDNSKSQVFLKMNSLQTDDTAIYYCAKHYYYGGSYAMDYWGQGTSVTVSS
VL: DIQMTQTTSSLSASLGDRVTISCRASQDISKYLNWYQQKPDGTVKLLIYHTSRLHSGVPSRFSGSGSGTDYSLTISNLEQEDIATYFCQQGNTLPYTFGGGTKLEIKR

Tests used:
E4 Chimeric Receptor = biological target: T1, E4 Chimeric Receptor; assay: cell-based or functional assay
K4 Chimeric Receptor = biological target: T2, K4 Chimeric Receptor; assay: cell-based or functional assay

Binder | EC50 (nM) of switch in cytotoxicity assay (LDH release), E4 CAR-T cells against CD19-positive Raji luc cells (E4 Chimeric Receptor) [nM] | EC50 (nM) of switch in cytotoxicity assay (LDH release), K4 CAR-T cells against CD19-positive Raji luc cells (K4 Chimeric Receptor) [nM]
B1 | 0.00432 | –
B2 | – | 0.0507
